PMC4778250 (ACS Central Science, 2015)

B1: VHH7 (anti-mouse Class II MHC single domain antibody) (VHH)
VHH: QVQLQESGGGLVQAGDSLRLSCAASGRTFSRGVMGWFRRAPGKEREFVAIFSGSSWSGRSTYYSDSVKGRFTISRDNAKNTVYLQMNGLKPEDTAVYYCAAGYPEAYSAYGRESTYDYWGQGTQVTVSS
B2: VHH4 (specific for human Class II MHC) (VHH)
VHH: QVQLQESGGGLVQAGGSLRLSCAASGSTLSSYGMGWYRQAPGKQREVVATISATGSISYADSVKGRFTISRDSAKNTMYLQLNSLTPEDTAVYYCNTIYRSTLYWGQGTQVTVSS

What was measured:
[1] = biological target: T1, mouse Class II MHC complex (Mus musculus C57BL/6 (H-2b; I-A b), UniProt P14434;P14483); assay: flow cytometry on cells
[2] = biological target: T1, mouse Class II MHC complex; assay: flow cytometry on cells; remark: listed apart in the source

T1 sequence (P14434 24-256, chain 1 of 2): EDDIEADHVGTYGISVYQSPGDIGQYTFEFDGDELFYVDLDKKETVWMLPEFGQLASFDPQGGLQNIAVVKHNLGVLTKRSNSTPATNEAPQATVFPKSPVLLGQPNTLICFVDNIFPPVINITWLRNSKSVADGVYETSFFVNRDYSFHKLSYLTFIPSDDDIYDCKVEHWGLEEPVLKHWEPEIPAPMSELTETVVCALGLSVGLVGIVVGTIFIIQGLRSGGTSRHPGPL
T1 sequence (P14483 28-265, chain 2 of 2): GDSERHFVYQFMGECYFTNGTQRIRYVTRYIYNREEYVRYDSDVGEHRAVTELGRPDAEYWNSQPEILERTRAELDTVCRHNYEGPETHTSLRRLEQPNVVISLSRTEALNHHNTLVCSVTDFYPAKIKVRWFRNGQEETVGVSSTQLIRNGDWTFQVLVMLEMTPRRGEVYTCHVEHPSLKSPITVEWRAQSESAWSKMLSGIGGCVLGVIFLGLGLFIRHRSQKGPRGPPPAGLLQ

Row | Binder | EC50 [1] [nM] | binding result [2]
1 | B1 | 55 to 60 | –
2 | B2 | – | no binding
